Data reported in patent US20220378955A1 (ACTINIUM PHARMACEUTICALS, published 2022).
Each block holds one molecule with its values, some of them ahead of it.

What was measured:
mouse CD45 (mouse) = mouse CD45 (mouse) (UniProt P06800); assay: CD45+ cell-based binding assay of radiolabeled antibody
human CD45 = target: T1, human CD45 (human, UniProt P08575 26-1306); assay: flow cytometry on Cytotrol cells, against naïve BC8 as reference
T1 construct: whole, on cells; BC8 is said to recognize all human isoforms; also called leukocyte common antigen (LCA); T200
T1 sequence (looked up): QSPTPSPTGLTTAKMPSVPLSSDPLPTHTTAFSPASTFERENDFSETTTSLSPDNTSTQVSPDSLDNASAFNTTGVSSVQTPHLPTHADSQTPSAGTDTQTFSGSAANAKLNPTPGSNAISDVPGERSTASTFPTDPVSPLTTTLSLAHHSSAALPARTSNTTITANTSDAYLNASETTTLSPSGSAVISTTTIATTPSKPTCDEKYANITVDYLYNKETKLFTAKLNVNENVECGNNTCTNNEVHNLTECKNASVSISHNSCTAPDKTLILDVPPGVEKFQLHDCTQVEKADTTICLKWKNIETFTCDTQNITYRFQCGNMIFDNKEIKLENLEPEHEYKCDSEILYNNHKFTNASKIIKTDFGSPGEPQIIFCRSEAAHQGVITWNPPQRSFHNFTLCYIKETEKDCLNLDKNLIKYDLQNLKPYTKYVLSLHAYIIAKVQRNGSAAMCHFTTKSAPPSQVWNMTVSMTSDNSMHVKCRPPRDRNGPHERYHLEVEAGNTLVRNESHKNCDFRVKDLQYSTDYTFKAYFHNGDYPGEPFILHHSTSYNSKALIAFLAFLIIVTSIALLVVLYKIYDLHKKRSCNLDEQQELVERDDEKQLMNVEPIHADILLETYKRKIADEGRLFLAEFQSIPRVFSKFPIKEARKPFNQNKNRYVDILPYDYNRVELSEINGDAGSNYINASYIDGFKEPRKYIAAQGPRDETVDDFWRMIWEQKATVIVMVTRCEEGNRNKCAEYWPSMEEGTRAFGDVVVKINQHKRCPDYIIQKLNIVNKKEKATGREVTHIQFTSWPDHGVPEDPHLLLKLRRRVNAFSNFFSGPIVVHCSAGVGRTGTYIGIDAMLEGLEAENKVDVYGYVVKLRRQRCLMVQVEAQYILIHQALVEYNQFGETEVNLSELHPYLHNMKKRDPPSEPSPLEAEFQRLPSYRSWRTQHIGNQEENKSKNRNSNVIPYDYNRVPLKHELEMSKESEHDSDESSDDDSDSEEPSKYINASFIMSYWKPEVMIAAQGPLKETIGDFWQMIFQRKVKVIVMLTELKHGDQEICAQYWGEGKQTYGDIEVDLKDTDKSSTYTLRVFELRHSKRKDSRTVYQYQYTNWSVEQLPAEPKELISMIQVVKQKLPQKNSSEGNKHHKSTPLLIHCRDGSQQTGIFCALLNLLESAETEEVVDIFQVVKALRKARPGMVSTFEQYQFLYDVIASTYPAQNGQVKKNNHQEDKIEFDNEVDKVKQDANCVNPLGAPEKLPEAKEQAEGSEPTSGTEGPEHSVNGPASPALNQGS
Text: Cytotrol cells (Beckman Coulter) were initially used to determine the binding of naïve BC8 antibody to those cells versus control 18B7 antibody (nonspecific control antibody against the fungal polysaccharide glucuronoxylomannan) by flow cytometry (FIG. 13A). The cells were taken up in RPMI medium, and the secondary antibody was PE labeled rat anti-mouse IgG1 from Biolegend.
Finally, we performed the side by side comparison of the binding of DOTA-BC8 sample to Cytotrol cells by flow cytometry (FIG. 14B), followed by immediate radiolabeling of the same sample with ²²⁵Ac and binding of the radiolabeled sample to Cytotrol cells (FIG. 14A). The binding of the DOTA-BC8 to the cells by flow cytometry (around 60% of the naïve BC8 binding) matched that of radiolabeled ²²⁵Ac-DOTA-BC8 to Cytotrol cells.

Chain of mouse CD45 (mouse) (P06800 26-1293): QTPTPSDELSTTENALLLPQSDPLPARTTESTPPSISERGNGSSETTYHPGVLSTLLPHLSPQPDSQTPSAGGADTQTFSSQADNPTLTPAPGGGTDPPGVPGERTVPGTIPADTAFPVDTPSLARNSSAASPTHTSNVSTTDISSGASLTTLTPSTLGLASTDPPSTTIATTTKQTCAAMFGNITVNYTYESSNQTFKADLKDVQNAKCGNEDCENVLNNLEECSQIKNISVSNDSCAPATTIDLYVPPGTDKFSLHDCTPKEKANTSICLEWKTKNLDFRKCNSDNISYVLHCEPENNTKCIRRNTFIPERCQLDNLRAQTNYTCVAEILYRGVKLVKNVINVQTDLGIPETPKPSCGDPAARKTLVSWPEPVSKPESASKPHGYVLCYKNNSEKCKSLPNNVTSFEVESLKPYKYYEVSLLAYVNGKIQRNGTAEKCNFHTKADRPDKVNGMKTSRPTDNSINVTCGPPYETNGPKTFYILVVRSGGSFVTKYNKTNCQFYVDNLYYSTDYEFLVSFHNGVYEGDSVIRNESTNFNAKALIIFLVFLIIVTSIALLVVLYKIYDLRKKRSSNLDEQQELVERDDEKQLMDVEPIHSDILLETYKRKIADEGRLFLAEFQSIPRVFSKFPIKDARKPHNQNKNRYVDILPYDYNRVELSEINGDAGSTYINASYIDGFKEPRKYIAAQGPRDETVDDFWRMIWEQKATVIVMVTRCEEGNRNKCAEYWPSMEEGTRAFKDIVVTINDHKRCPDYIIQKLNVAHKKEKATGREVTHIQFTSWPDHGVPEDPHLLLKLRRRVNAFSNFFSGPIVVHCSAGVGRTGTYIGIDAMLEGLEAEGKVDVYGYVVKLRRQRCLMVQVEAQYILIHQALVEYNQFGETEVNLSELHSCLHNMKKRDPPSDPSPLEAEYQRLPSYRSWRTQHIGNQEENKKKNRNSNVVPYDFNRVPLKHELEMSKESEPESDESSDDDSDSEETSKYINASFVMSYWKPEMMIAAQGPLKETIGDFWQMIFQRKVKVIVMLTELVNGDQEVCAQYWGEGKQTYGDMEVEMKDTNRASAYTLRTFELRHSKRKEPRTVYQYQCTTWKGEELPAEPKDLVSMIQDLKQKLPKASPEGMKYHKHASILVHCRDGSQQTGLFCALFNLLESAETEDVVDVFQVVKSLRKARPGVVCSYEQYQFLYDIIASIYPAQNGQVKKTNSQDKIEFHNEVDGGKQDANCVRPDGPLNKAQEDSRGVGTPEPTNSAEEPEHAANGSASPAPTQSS

immunoreactivity (mouse CD45 (mouse)): > 95%
Molecule: ^131I-labeled anti-mouse pan-CD45 antibody 30F11

immunoreactivity (mouse CD45 (mouse)): > 95%
Molecule: ^177Lu-labeled anti-mouse pan-CD45 antibody 30F11

binding relative to naïve BC8 (human CD45): ~60% | immunoreactivity relative to naïve BC8 (human CD45): ~70%
B1: DOTA-BC8 (BC8 conjugated with p-SCN-Bn-DOTA, batch A) (antibody, V domains shown)
VH: EVKLLESGGGLVQPGGSLKLSCAASGFDFSRYWMSWVRQAPGKGLEWIGEINPTSSTINFTPSLKDKVFISRDNAKNTLYLQMSKVRSEDTALYYCARGNYYRYGDAMDYWGQGTSVTVS
VL: DIALTQSPASLAVSLGQRATISCRASKSVSTSGYSYLHWYQQKPGQPPKLLIYLASNLESGVPARFSGSGSGTDFTLNIHPVEEEDAATYYCQHSRELPFTFGSGTKLEIKR
modifications: p-SCN-Bn-DOTA conjugated, sites not stated; p-SCN-Bn-DOTA conjugated, about 1.5 DOTA per antibody (batch A), sites not stated; Asn-141 partly deamidated to Asp
notes: Chelator conjugate of murine IgG1 BC8; also called unlabeled DOTA-BC8
